The results in this text go back to patent US7732183B2, “Method for refolding enzymes” (Elan Pharmaceuticals, Inc., priority 2001, dated 2010).

In general, Km refers to the concentration of substrate that gives half-maximal velocity. As a reminder, the Vmax is the rate approached at saturating substrate. For orientation: kcat means the maximal rate divided by the concentration of active sites.

Holding throughout (assay type): biochemical
Data set [1] concerns substrate SEISY↓EVEFRWKK [SEQ ID NO:9] or GLTNIKTEEISEISY↓EVEFRWKK [SEQ ID NO:10]. Put plainly: BACE activity assay: HPLC with fluorescence detection of peptide substrate cleavage. Conditions: for Activity %: relative to recombinant BACE expressed in CHO cells (=100), E. coli enzymes refolded as in Example 4 and purified. How it is done:
(§1) Peptide substrates SEISY↓EVEFRWKK [SEQ ID NO: 9] and GLTNIKTEEISEISY↓EVEFRWKK [SEQ ID NO: 10] were synthesized by solid-phase technology (arrows indicating cleavage site). The assay mixture contained in a volume of 200 μl, 0.1 M Sodium acetate, pH 5.0, 0.5-20 nM BACE and 25 μM substrate SEISY↓EVEFRWKK [SEQ ID NO:9] or GLTNIKTEEISEISY↓EVEFRWKK [SEQ ID NO:10]. The reaction mixture was incubated for 2 hours at 37° C.; reactions were stopped with 100 μl of 4% TFA in H2O. A 50 μl portion was injected into an Agilent 1100 Series HPLC equipped with an Alltech Rocket™ column (7 mm i.d.×53 mm length, C18, 3 μm) pre-equilibrated with 88% reagent A (0.1% TFA in water), 12% reagent B (0.1% TFA in acetonitrile). The flow rate over this column was 3 ml per minute. The products (including uncleaved substrate) were eluted from the column with the following linear gradients:
(§2) The Agilent 1100 Series HPLC is equipped with a fluorescence detector that allows detection of the substrate disappearance and EVEFRWKK [SEQ ID NO:29] product formation. Activity was expressed as Fluorescence peak area generated by the liberation of a fluorescent (Tryptophan fluorescence) product upon cleavage of substrate. Fluorescence detection is monitored at 348 nM upon excitation at 280 nm.

In data set [2] the target is T1, substrate SEISY↓EVEFRWKK [SEQ ID NO:9] or GLTNIKTEEISEISY↓EVEFRWKK [SEQ ID NO:10] (Homo sapiens, UniProt P56817).
T1 construct: made in house; control enzyme from CHO cells
The data set is described as above. The settings on record: relative to CHO BACE, Example 5 optimized refolding method. How it is done:
as §1, §2

Data set [3] concerns SEISY-↓-EVEFRWKK [SEQ ID NO: 9]. Put plainly: Kinetic comparison of CHO and E. coli BACE (Vmax, kcat, Km). Conditions: substrate SEQ ID NO: 9, 1 to 300 μM; pH 5.5, 50 mM NaCl, 37° C., 1 h, enzyme 1 nM.
For data set [4], the system named is GLTNIKTEEISEISY-↓-EVEFRWKK [SEQ ID NO: 10]. Described as above. The settings on record: substrate SEQ ID NO: 10, 1 to 300 μM; pH 5.5, 50 mM NaCl, 37° C., 1 h, enzyme 1 nM.
The target of data set [5] is T2, EIDL-↓-MVLDWHDR [SEQ ID NO: 13] (Homo sapiens, UniProt P56817).
T2 construct: made in house; host or cells: CHO cells, purified from conditioned media
The description is as above. The settings on record: substrate SEQ ID NO: 13, 1 to 300 μM; pH 5.5, 50 mM NaCl, 37° C., 1 h, enzyme 1 nM.

Values joined by “and” are separate entries in the source; they are usually repeats but may differ in a detail not shown here. Equal values may be shown once.

B1: pET11a-BACE: T7 tag-GSM-BACE (A-8 to S432), SEQ ID NO:5, expressed in E. coli and refolded (protein, listed as Homo sapiens)
chain: MASMTGGQQMGRGSMAGVLPAHGTQHGIRLPLRSGLGGAPLGLRLPRETDEEPEEPGRRGSFVEMVDNLRGKSGQGYYVEMTVGSPPQTLNILVDTGSSNFAVGAAPHPFLHRYYQRQLSSTYRDLRKGVYVPYTQGKWEGELGTDLVSIPHGPNVTVRANIAAITESDKFFINGSNWEGILGLAYAEIARPDDSLEPFFDSLVKQTHVPNLFSLQLCGAGFPLNQSEVLASVGGSMIIGGIDHSLYTGSLWYTPIRREWYYEVIIVRVEINGQDLKMDCKEYNYDKSIVDSGTTNLRLPKKVFEAAVKSIKAASSTEKFPDGFWLGEQLVCWQAGTTPWNIFPVISLYLMGEVTNQSFRITILPQQYLRPVEDVATSQDDCYKFAISQSSTGTVMGAVIMEGFYVVFDRARKRIGFAVSACHVHDEFRTAAVEGPFVTLDMEDCGYNIPQTDES
modifications: T7 tag
Consider B1, for which the figures for the Activity % in data set [1], in data set [1] (listed as pET11a BACE) and in data set [1] (listed as recombinant BACE) were 47%, “about 47%” and 28%, respectively.

B2: pET11a-BACE + HIV Pr: V40 to S432 BACE fragment, SEQ ID NO:31, obtained by HIV-1 protease treatment of pET11a-BACE (protein, listed as Homo sapiens)
chain: VEMVDNLRGKSGQGYYVEMTVGSPPQTLNILVDTGSSNFAVGAAPHPFLHRYYQRQLSSTYRDLRKGVYVPYTQGKWEGELGTDLVSIPHGPNVTVRANIAAITESDKFFINGSNWEGILGLAYAEIARPDDSLEPFFDSLVKQTHVPNLFSLQLCGAGFPLNQSEVLASVGGSMIIGGIDHSLYTGSLWYTPIRREWYYEVIIVRVEINGQDLKMDCKEYNYDKSIVDSGTTNLRLPKKVFEAAVKSIKAASSTEKFPDGFWLGEQLVCWQAGTTPWNIFPVISLYLMGEVTNQSFRITILPQQYLRPVEDVATSQDDCYKFAISQSSTGTVMGAVIMEGFYVVFDRARKRIGFAVSACHVHDEFRTAAVEGPFVTLDMEDCGYNIPQTDES
modifications: BACE V40- S432 fragment
Take B2: in data set [1] (HIV-1 protease cleavage at F39-V40, then purification), the “increase in enzyme activity after HIV-1 protease treatment versus untreated enzyme” value is reported as “about 5 fold”. Also, the Activity % in data set [1] was 248%; in data set [1] (listed as V^40 . . . S^432), 248% and 222%.

B3: pQE80L-BACE + HIV Pr: V40 to S432 BACE fragment, SEQ ID NO:31, obtained by HIV-1 protease treatment of pQE80L-BACE (protein, listed as Homo sapiens)
chain: VEMVDNLRGKSGQGYYVEMTVGSPPQTLNILVDTGSSNFAVGAAPHPFLHRYYQRQLSSTYRDLRKGVYVPYTQGKWEGELGTDLVSIPHGPNVTVRANIAAITESDKFFINGSNWEGILGLAYAEIARPDDSLEPFFDSLVKQTHVPNLFSLQLCGAGFPLNQSEVLASVGGSMIIGGIDHSLYTGSLWYTPIRREWYYEVIIVRVEINGQDLKMDCKEYNYDKSIVDSGTTNLRLPKKVFEAAVKSIKAASSTEKFPDGFWLGEQLVCWQAGTTPWNIFPVISLYLMGEVTNQSFRITILPQQYLRPVEDVATSQDDCYKFAISQSSTGTVMGAVIMEGFYVVFDRARKRIGFAVSACHVHDEFRTAAVEGPFVTLDMEDCGYNIPQTDES
modifications: BACE V40- S432 fragment
B3: the Activity % in data set [1] is 222%.

B4: pQE70-BACE: (M)R36 to S432 BACE-RS(His)6 lacking prosequence, SEQ ID NO:3, expressed in E. coli and refolded (protein, listed as Homo sapiens)
chain: MRGSFVEMVDNLRGKSGQGYYVEMTVGSPPQTLNILVDTGSSNFAVGAAPHPFLHRYYQRQLSSTYRDLRKGVYVPYTQGKWEGELGTDLVSIPHGPNVTVRANIAAITESDKFFINGSNWEGILGLAYAEIARPDDSLEPFFDSLVKQTHVPNLFSLQLCGAGFPLNQSEVLASVGGSMIIGGIDHSLYTGSLWYTPIRREWYYEVIIVRVEINGQDLKMDCKEYNYDKSIVDSGTTNLRLPKKVFEAAVKSIKAASSTEKFPDGFWLGEQLVCWQAGTTPWNIFPVISLYLMGEVTNQSFRITILPQQYLRPVEDVATSQDDCYKFAISQSSTGTVMGAVIMEGFYVVFDRARKRIGFAVSACHVHDEFRTAAVEGPFVTLDMEDCGYNIPQTDESRSHHHHHH
modifications: His6 tag
In turn, B4 registered an Activity % in data set [2] (first elution from affinity column) of 171%. In data set [2] (second elution from affinity column), this molecule had an Activity % of 125%. In data set [3], the Km was determined as 55.5 µM, the Vmax was 0.345 µmol/min/mg and the turnover number (kcat) was found to be 0.273 s⁻¹. In data set [4], the Km was determined as 5.4 µM, the maximum rate (Vmax) came to 0.400 µmol/min/mg and the turnover number (kcat) is 0.317 s⁻¹.

B5: PcDNA3.1Asp2LΔTM(His)6: Recombinant human BACE lacking transmembrane domain, His6 tag, expressed in CHO cells (control), SEQ ID NO:23 (protein, listed as Homo sapiens)
chain: MAQALPWLLLWMGAGVLPAHGTQHGIRLPLRSGLGGAPLGLRLPRETDEEPEEPGRRGSFVEMVDNLRGKSGQGYYVEMTVGSPPQTLNILVDTGSSNFAVGAAPHPFLHRYYQRQLSSTYRDLRKGVYVPYTQGKWEGELGTDLVSIPHGPNVTVRANIAAITESDKFFINGSNWEGILGLAYAEIARPDDSLEPFFDSLVKQTHVPNLFSLQLCGAGFPLNQSEVLASVGGSMIIGGIDHSLYTGSLWYTPIRREWYYEVIIVRVEINGQDLKMDCKEYNYDKSIVDSGTTNLRLPKKVFEAAVKSIKAASSTEKFPDGFWLGEQLVCWQAGTTPWNIFPVISLYLMGEVTNQSFRITILPQQYLRPVEDVATSQDDCYKFAISQSSTGTVMGAVIMEGFYVVFDRARKRIGFAVSACHVHDEFRTAAVEGPFVTLDMEDCGYNIPQTDESHHHHHH
modifications: His6 tag; Human soluble BACE with 6-His tag
On to B5, for which, in data set [5], the Michaelis constant (Km) is 12 µM, the Vmax stood at 0.0196 µmol/min/mg and the catalytic constant (kcat) is 0.0155 s⁻¹. For the same molecule, the Activity % in data set [1] came to 100%. In data set [3], the Km worked out at 52 µM, the Vmax turned out to be 0.294 µmol/min/mg and the kcat worked out at 0.233 s⁻¹. Also, in data set [4], the Michaelis-Menten constant (Km) was found to be 4.9 µM, the maximal velocity (Vmax) is 0.435 µmol/min/mg and the turnover number (kcat) turned out to be 0.345 s⁻¹.

B6: PcDNA3.1Asp2LΔTM(His)6 + HIV Pr: CHO-expressed BACE cleaved with HIV-1 protease, SEQ ID NO:32 (protein, listed as Homo sapiens)
chain: VEMVDNLRGKSGQGYYVEMTVGSPPQTLNILVDTGSSNFAVGAAPHPFLHRYYQRQLSSTYRDLRKGVYVPYTQGKWEGELGTDLVSIPHGPNVTVRANIAAITESDKFFINGSNWEGILGLAYAEIARPDDSLEPFFDSLVKQTHVPNLFSLQLCGAGFPLNQSEVLASVGGSMIIGGIDHSLYTGSLWYTPIRREWYYEVIIVRVEINGQDLKMDCKEYNYDKSIVDSGTTNLRLPKKVFEAAVKSIKAASSTEKFPDGFWLGEQLVCWQAGTTPWNIFPVISLYLMGEVTNQSFRITILPQQYLRPVEDVATSQDDCYKFAISQSSTGTVMGAVIMEGFYVVFDRARKRIGFAVSACHVHDEFRTAAVEGPFVTLDMEDCGYNIPQTDESHHHHHH
modifications: His6 tag; HIV Protease treated BACE Asp2-2L-TM-His6
As for B6, in data set [1] (BACE expressed in CHO cells, HIV-1 protease treated and purified), the “more enzymatic activity than untreated BACE” value is reported as 10-20%. The Activity % in data set [1] is given as 120%.
